According to FireProtDB (doi:10.1002/prot.1147):

Conditions: Homo sapiens; pH 2.7; Thermal; DSC; Gly-HCl 0.05 M; reversible: yes; whole UniProt chain shown

B1: Lysozyme C wild type, P61626 (protein)
chain: MKALIVLGLVLLSVTVQGKVFERCELARTLKRLGMDGYRGISLANWMCLAKWESGYNTRATNYNAGDRSTDYGIFQINSRYWCNDGKTPGAVNACHLSCSALLQDNIADAVACAKRVVRDPQGIRAWVAWRNRCQNRDVRQYVQGCGV
- Tm: 64.9 °C
- heat capacity change of unfolding: 1.58 kcal/mol/K
- unfolding enthalpy (van 't Hoff): 114 kcal/mol
